From patent US7144731B2, “SCF antibody compositions and methods of using the same” (Amgen Inc., priority 1989, dated 2006)

Columns and labels:
[1] = system: COS-1 cells (endogenous c-kit); assay: ^125I-SCF^1-164 binding to COS-1 cells transfected with V19.8 alone
Excerpt: To test whether SCF^1-164 is the ligand for c-kit, the cDNA for the entire murine c-kit [Qiu et al., EMBO J., 7, 1003–1011 (1988)] was amplified using PCR from the SCF^1-164 responsive mast cell line MC/9 [Nabel et al., Nature, 291, 332–334 (1981)] with primers designed from the published sequence. The ligand binding and transmembrane domains of human c-kit, encoded by amino acids 1–549 [Yarden et al., EMBO J., 6, 3341–3351 (1987)], were cloned using similar techniques from the human erythroleukemia cell line, HEL [Martin and Papayannopoulou, Science, 216, 1233–1235 (1982)]. The c-kit cDNAs were inserted into the mammalian expression vector V19.8 transfected into COS-1 cells, and membrane fractions prepared for binding assays using either rat or human ^125I-SCF^1-164 according to the methods described in Sections B and C below. […] There was no detectable specific binding of ^125I human SCF^1-164 to COS-1 cells transfected with V19.8 alone. However, COS-1 cells expressing human recombinant c-kit ligand binding plus transmembrane domains (hckit-LT1) did bind ^125I-hSCF^1-164 (Table 17). The addition of a 200 fold molar excess of unlabelled human SCF^1-164 reduced binding to background levels. […]
Two days after transfection, the COS-1 cells were scraped from the dish, washed in PBS, and frozen until use. […] The pellets were clipped off and membrane associated ^125I-SCF^1-164 was quantitated.

[2] = molecular target: T1, human c-kit (hckit-LT1) (Homo sapiens, UniProt P10721); assay: ^125I-SCF^1-164 binding to recombinant c-kit in COS-1 cells
T1 construct: expressed in transfected cells; host or cells: COS-1 cells transfected with V19.8 carrying c-kit cDNA cloned from HEL cells; membrane fractions used
Excerpt: (§1) To test whether SCF^1-164 is the ligand for c-kit, the cDNA for the entire murine c-kit [Qiu et al., EMBO J., 7, 1003–1011 (1988)] was amplified using PCR from the SCF^1-164 responsive mast cell line MC/9 [Nabel et al., Nature, 291, 332–334 (1981)] with primers designed from the published sequence. The ligand binding and transmembrane domains of human c-kit, encoded by amino acids 1–549 [Yarden et al., EMBO J., 6, 3341–3351 (1987)], were cloned using similar techniques from the human erythroleukemia cell line, HEL [Martin and Papayannopoulou, Science, 216, 1233–1235 (1982)]. The c-kit cDNAs were inserted into the mammalian expression vector V19.8 transfected into COS-1 cells, and membrane fractions prepared for binding assays using either rat or human ^125I-SCF^1-164 according to the methods described in Sections B and C below. […] There was no detectable specific binding of ^125I human SCF^1-164 to COS-1 cells transfected with V19.8 alone. However, COS-1 cells expressing human recombinant c-kit ligand binding plus transmembrane domains (hckit-LT1) did bind ^125I-hSCF^1-164 (Table 17). The addition of a 200 fold molar excess of unlabelled human SCF^1-164 reduced binding to background levels. Similarly, COS-1 cells transfected with the full length murine c-kit (mckit-L1) bound rat ^125I-SCF^1-164. […] This finding is in accord with the broad cellular distribution of c-kit expression. Rat ^125I-SCF^1-164 binds similarly to both human and murine c-kit, while human ^125I-SCF^1-164 bind with lower activity to murine c-kit (Table 17).
(§2) Human and murine c-kit cDNA clones were derived using PCR techniques [Saiki et al., Science, 239, 487–491 (1988)] from total RNA isolated by an acid phenol/chloroform extraction procedure [Chomczynsky and Sacchi, Anal. Biochem., 162, 156–159, (1987)] from the human erythroleukemia cell line HEL and MC/9 cells, respectively. Unique sequence oligonucleotides were designed from the published human and murine c-kit sequences. First strand cDNA was synthesized from the total RNA according to the protocol provided with the enzyme, Mo-MLV reverse transcription (Bethesda Research Laboratories, Bethesda, Md.), using c-kit antisense oligonucleotides as primers. Amplification of overlapping regions of the c-kit ligand binding and tyrosine kinase domains was accomplished using appropriate pairs of c-kit primers. These regions were cloned into the mammalian expression vector V19.8 (FIG. 17) for expression in COS-1 cells. […] A clone free of these mutations was constructed by reassembly of mutation-free restriction fragments from separate clones. […]

[3] = molecular target: T2, murine c-kit (mckit-L1) (Mus musculus, UniProt P05532); assay: as above
T2 construct: expressed in transfected cells; host or cells: COS-1 cells transfected with V19.8 carrying c-kit cDNA cloned from MC/9 mast cells; membrane fractions used
T2 sequence (P05532 25-979): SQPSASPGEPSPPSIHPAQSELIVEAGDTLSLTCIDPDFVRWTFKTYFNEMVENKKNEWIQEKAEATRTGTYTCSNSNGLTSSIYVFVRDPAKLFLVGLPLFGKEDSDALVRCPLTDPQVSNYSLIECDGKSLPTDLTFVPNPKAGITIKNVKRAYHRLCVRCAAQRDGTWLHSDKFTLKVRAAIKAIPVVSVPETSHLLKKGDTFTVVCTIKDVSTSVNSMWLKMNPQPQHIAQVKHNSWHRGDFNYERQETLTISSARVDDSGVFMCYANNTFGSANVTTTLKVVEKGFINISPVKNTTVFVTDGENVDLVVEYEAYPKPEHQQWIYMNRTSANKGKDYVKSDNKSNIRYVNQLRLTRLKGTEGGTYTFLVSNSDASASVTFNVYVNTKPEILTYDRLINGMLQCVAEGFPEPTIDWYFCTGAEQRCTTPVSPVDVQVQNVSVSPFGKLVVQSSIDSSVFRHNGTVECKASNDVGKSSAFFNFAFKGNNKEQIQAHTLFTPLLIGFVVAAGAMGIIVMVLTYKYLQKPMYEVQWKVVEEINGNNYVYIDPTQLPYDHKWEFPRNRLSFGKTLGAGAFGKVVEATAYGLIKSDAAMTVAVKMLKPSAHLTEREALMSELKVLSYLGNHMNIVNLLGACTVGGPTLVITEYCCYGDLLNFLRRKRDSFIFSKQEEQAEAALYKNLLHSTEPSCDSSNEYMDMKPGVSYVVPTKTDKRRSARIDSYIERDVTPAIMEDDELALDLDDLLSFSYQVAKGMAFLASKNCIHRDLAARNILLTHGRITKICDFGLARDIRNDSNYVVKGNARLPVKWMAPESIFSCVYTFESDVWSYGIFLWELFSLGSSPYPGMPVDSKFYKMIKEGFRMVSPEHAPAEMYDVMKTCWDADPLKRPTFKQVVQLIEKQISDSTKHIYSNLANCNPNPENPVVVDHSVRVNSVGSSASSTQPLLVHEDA
Excerpt: as §1, §2

B1: rrSCF^1-164: recombinant rat SCF^1-164 from E. coli, also used ^125I-labelled (protein)
chain: QEICRNPVTDNVKDITKLVANLPNDYMITLNYVAGMDVLPSHCWLRDMVTHLSVSLTTLLDKFSNISEGLSNYSIIDKLGKIVDDLVACMEENAPKNVKESLKKPETRNFTPEEFFSIFNRSIDAFKDFMVASDTSDCVLSSTLGPEKDSRVSVTKPFMLPPVA
CPM Bound, ^125I-SCF + cold ([1]; 1.6 nM ^125I-SCF^1-164 + 320 nM unlabelled SCF^1-164, V19.8): 550 CPM
CPM Bound, ^125I-SCF ([1]; 1.6 nM ^125I-SCF^1-164, plasmid V19.8): 1,100 CPM
CPM Bound, ^125I-SCF + cold ([2]; 1.6 nM ^125I-SCF^1-164 + 320 nM unlabelled SCF^1-164, V19.8:hckit-LT1): 1,100 CPM
CPM Bound, ^125I-SCF ([2]; 1.6 nM ^125I-SCF^1-164, plasmid V19.8:hckit-LT1): 70,000 CPM
CPM Bound, ^125I-SCF + cold ([3]; 1.6 nM ^125I-SCF^1-164 + 320 nM unlabelled SCF^1-164, V19.8:mckit-L1): 600 CPM
CPM Bound, ^125I-SCF ([3]; 1.6 nM ^125I-SCF^1-164, plasmid V19.8:mckit-L1): 52,700 CPM
